B1: C10orf62 (parent)
chain: MLWVQRKRRRKETSECPSDKDKSP
B2: PPFIA4 (parent)
chain: VMTLPSDLRKHRRKLLSPVSREEN

Variants of: B1
Experiment: protein stability index of a GFP-peptide fusion (GPS, HEK-293T) (PSI 1-6); higher = more stable
Conditions: c terminus: a fixed tail appended
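Further: lentivirally expressed fusions sorted by FACS into six bins by GFP to DsRed ratio, PSI derived from sequencing read proportions per bin multiplied by bin number.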

Protein stability index: each site, then its substitutions
E12: G 2.49, C 2.7, N 2.67, H 3.16, R 3.7, P 3.67, Q 3.37, L 3.02, S 3.45, K 3.44, T 2.92, W 2.5, M 2.67, F 2.5, Y 2.68, V 2.93, A 3.13, I 2.39, D 2.39
D19: E 2.46, S 2.37, L 1.98, A 2.77, Y 2.99, I 2.84, C 2.76, W 1.65, Q 2.65, V 2.63, F 2.57, N 2.92, M 3.44, P 2.61, H 2.77
S23: K 2.27, Y 2.69, I 2.4, T 3.05, V 3.58, D 3.49, P 2.88, L 3.38, E 2.48, H 2.77, W 1.92, N 3.29, M 3.39, C 3.15, G 3.25, F 2.5, R 2.88, Q 3.42, A 3.2
K20: R 2.81, Y 3.92, G 3.29, M 3.38, A 2.74, L 3.01, C 3.52, F 2.12, T 3.35, I 3.7, P 3.19, Q 2.46, N 4.29, H 2.97, V 3.27, D 4.06, S 2.73
P24: D 3.28, L 2.37, H 3.31, Y 2.57, T 2.98, M 2.46, Q 3.54, K 2.16, F 2.46, N 2.8, R 3.31, A 3.72, G 3.59, I 2.35, V 2.95, W 3.58, S 3.11, C 3.2
S18: W 2.63, H 2.85, I 2.41, N 2.83, V 2.9, G 3.58, C 2.77, E 2.88, Y 2.43, K 2.77, A 3.23, R 3.21, D 3.07, Q 3.42, T 2.75, M 2.94
K22: M 3.06, I 2.61, Y 3.12, V 3.63, L 3.2, C 2.32, F 2.66, A 4.4, D 2.48, G 2.97, P 3.58, E 2.83, N 3.47, S 3.18, T 3.48
D21: A 2.64, P 2.62, F 2.4, M 2.5, N 3.44, K 4.07, I 2.32, L 2.29, H 2.28, Q 2.87, R 1.92, E 3.44, Y 2.32, G 3.36
K11: F 2.73, G 2.9, R 3.39, P 3.34, Y 2.31, C 2.46, M 2.71, Q 3.44, A 4.09, H 2.72, T 2.73, N 3.11, E 3.06, W 2.45, L 3.55, D 3.46, I 2.9
T13: S 2.25, W 2.75, L 3.4, P 3.04, R 3.48, H 3.39, Q 2.58, E 2.99, V 4.26, D 2.3, G 2.15, I 2.52, Y 2.07, K 3.55, C 2.42
C16: E 3.25, V 2.81, L 2.53, I 2.95, K 3.41, S 4.01, F 2.29, M 3.84, N 3.16, W 2.16, R 3.35, Y 3.1, Q 3.75, H 3.11, G 2.43, P 2.16
S14: E 3.2, M 3.31, N 3.14, F 3.12, A 3.82, V 3.14, H 2.71, I 2.74, D 3.12, R 2.55, Y 2.44, G 3.1, T 2.55, W 2.94
R9: M 3.63, Q 3.2, N 3.18, T 3.49, P 2.26, Y 3.75, V 3.18, L 3.08, K 2.73
P17: T 3.08, M 3.44, F 2.51, D 2.6, S 2.92, R 2.52, W 2.86, Y 2.27, I 2.96, C 2.74, N 3.23, L 2.98, A 4.1, H 2.81, Q 3.36, E 2.41
E15: Y 2.76, L 2.84, I 1.92, F 3, M 2.24, A 3.71, H 2.92, S 2.96, V 3.29, T 2.95, C 3, D 3.26, R 2.54, K 2.74, P 2.99, N 3.52, W 2.15, Q 3.56
R10: A 3.85, N 3.78, S 3.21, E 3.86, C 2.51, W 2.89, D 4.11, L 2.78, K 3.41, P 4.27, Y 2.78, T 3.79, F 2.33, M 3.13, H 3.45, Q 3.12

Variants of: B2
Experiment: as above
Conditions: c terminus: a fixed tail appended

Protein stability index, by site and new letter:
V1: R 4.59, E 4.2, D 4.35, Y 3.21, G 3.31, A 3.93, W 2.66, C 3.81, Q 4.35, H 4.25, N 3.62, F 2.83, K 3.81, T 4.25, S 4.27, P 4.27, I 3.55, L 3.27, M 3.89
M2: D 4.71, T 4.46, Y 3.15, Q 3.06, G 4.17, N 3.84, H 4.02, W 3.72, E 4.54, C 3.65, A 4.31, F 3.19, P 3.93, K 3.82, I 3.12, V 3.46, R 4.04, L 3.48, S 3.69
L4: W 4.09, A 4.27, T 4.28, Y 3.45, M 3.69, R 3.25, H 4.08, Q 4.02, E 4.37, C 4.31, I 3.42, K 4.44, N 4.23, F 3.4, G 4.45, D 4.14, S 3.94, V 3.77, P 4.32
T3: S 3.71, G 3.99, K 2.66, N 2.82, A 3.92, R 3.07, W 2.26, I 2.65, Q 2.85, E 3.51, L 2.32, D 4.12, F 1.74, Y 2.5, C 3.56, H 3.52, M 2.31, V 2.95, P 3.51
P5: A 3.06, C 2.63, D 4.37, E 4.18
